The values that follow come from patent US20160279215A1, “NOVEL PEPTIDES AND COMBINATION OF PEPTIDES FOR USE IN IMMUNOTHERAPY AGAINST VARIOUS TUMORS” (immatics biotechnologies GmbH, priority 2015, published 2016).

Assay [1] has as its system CD8+ T cells of healthy HLA-A*02 donors. Briefly: In vitro immunogenicity: T-cell priming with aAPCs loaded with peptide/MHC and anti-CD28, pMHC multimer readout. The class given is cell-based, human. The note with it: in vitro immunogenicity, HLA-A*02 restricted peptides; percentage of positive wells among evaluable. The source says: In order to obtain information regarding the immunogenicity of the TUMAPs of the present invention, the inventors performed investigations using an in vitro T-cell priming assay based on repeated stimulations of CD8+ T cells with artificial antigen presenting cells (aAPCs) loaded with peptide/MHC complexes and anti-CD28 antibody.
In order to perform in vitro stimulations by artificial antigen presenting cells loaded with peptide-MHC complex (pMHC) and anti-CD28 antibody, the inventors first isolated CD8+ T cells from fresh HLA-A*02 leukapheresis products via positive selection using CD8 microbeads (Miltenyi Biotec, Bergisch-Gladbach, Germany) of healthy donors obtained from the University clinics Mannheim, Germany, after informed consent. PBMCs and isolated CD8+ lymphocytes were incubated in T-cell medium (TCM) until use consisting of RPMI-Glutamax (Invitrogen, Karlsruhe, Germany) supplemented with 10% heat inactivated human AB serum (PAN-Biotech, Aidenbach, Germany), 100 U/ml Penicillin/100 μg/ml Streptomycin (Cambrex, Cologne, Germany), 1 mM sodium pyruvate (CC Pro, Oberdorla, Germany), 20 μg/ml Gentamycin (Cambrex). 2.5 ng/ml IL-7 (PromoCell, Heidelberg, Germany) and 10 U/ml IL-2 (Novartis Pharma, Nürnberg, Germany) were also added to the TCM at this step. Generation of pMHC/anti-CD28 coated beads, T-cell stimulations and readout was performed in a highly defined in vitro system using four different pMHC molecules per stimulation condition and 8 different pMHC molecules per readout condition.
The purified co-stimulatory mouse IgG2a anti human CD28 Ab 9.3 (Jung et al., 1987) was chemically biotinylated using Sulfo-N-hydroxysuccinimidobiotin as recommended by the manufacturer (Perbio, Bonn, Germany). Beads used were 5.6 μm diameter streptavidin coated polystyrene particles (Bangs Laboratories, Illinois, USA).
pMHC used for positive and negative control stimulations were A*0201/MLA-001 (peptide […] (SEQ ID NO. 289) from modified Melan-A/MART-1) and A*0201/DDX5-001 ([…] from DDX5, SEQ ID NO. 290), respectively.
800.000 beads/200 μl were coated in 96-well plates in the presence of 4×12.5 ng different biotin-pMHC, washed and 600 ng biotin anti-CD28 were added subsequently in a volume of 200 μl. Stimulations were initiated in 96-well plates by co-incubating […] CD8+ T cells with 2×10^5 washed coated beads in 200 μl TCM supplemented with 5 ng/ml IL-12 (PromoCell) for 3 days at 37° C. Half of the medium was then exchanged by fresh TCM supplemented with 80 U/ml IL-2 and incubating was continued for 4 days at 37° C. This stimulation cycle was performed for a total of three times. For the pMHC multimer readout using 8 different pMHC molecules per condition, a two-dimensional combinatorial coding approach was used as previously described (Andersen et al., 2012) with minor modifications encompassing coupling to 5 different fluorochromes. Finally, multimeric analyses were performed by staining the cells with Live/dead near IR dye (Invitrogen, Karlsruhe, Germany), CD8-FITC antibody clone SK1 (BD, Heidelberg, Germany) and fluorescent pMHC multimers. For analysis, a BD LSRII SORP cytometer equipped with appropriate lasers and filters was used. Peptide specific cells were calculated as percentage of total CD8+ cells. Evaluation of multimeric analysis was done using the FlowJo software (Tree Star, Oreg., USA). In vitro priming of specific multimer+ CD8+ lymphocytes was detected by comparing to negative control stimulations.
Exemplary flow cytometry results after TUMAP-specific multimer staining for 15 peptides of the invention are shown in FIGS. 3 and 6 together with corresponding negative controls.

In assay [2] the target is T1, HLA-A*02:01 (Homo sapiens, UniProt P04439, D140Y/D185E/D98H/E176V/E277Q/G131W/G231S/I119V/I121R/I166T/I218V/L300P/L318F/N151K/N90K/P208A/P217A/Q86G/Q94H/R138H/R169H/T345S).
T1 construct: made in house
Kind of assay: MHC binding assay: UV-ligand exchange with β2m ELISA (peptide exchange yield). The note with it: binding to HLA-A*02:01 evaluated by peptide exchange yield (UV-ligand exchange, β2m ELISA). The gist of the method: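 Binding capacity is expressed as the yield of UV-mediated ligand exchange, reflecting how well each peptide stabilizes peptide-receptive MHC. Stabilized complexes are read out by anti-β2m HRP ELISA (450 nm) after streptavidin capture, with refolded MLA-001 monomer standards for quantitation.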

The target in assay [3] is T2, HLA-A*02:01 (human).
T2 construct: MHC monomers captured on streptavidin plates; the UV-sensitive peptide is cleaved and exchanged with the test peptide; also called peptide-receptive MHC molecules; MHC class I
Briefly: UV ligand-exchange ELISA (anti-b2m); + = exchange yield >=10%. The source says: (§1) Candidate peptides for T cell based therapies according to the present invention were further tested for their MHC binding capacity (affinity). The individual peptide-MHC complexes were produced by UV-ligand exchange, where a UV-sensitive peptide is cleaved upon UV-irradiation, and exchanged with the peptide of interest as analyzed. Only peptide candidates that can effectively bind and stabilize the peptide-receptive MHC molecules prevent dissociation of the MHC complexes. To determine the yield of the exchange reaction, an ELISA was performed based on the detection of the light chain (β2m) of stabilized MHC complexes. The assay was performed as generally described in Rodenko et al. (Rodenko et al., 2006).
(§2) 96 well MAXISorp plates (NUNC) were coated over night with 2 ug/ml streptavidin in PBS at room temperature, washed 4× and blocked for 1 h at 37° C. in 2% BSA containing blocking buffer. Refolded HLA-A*02:01/MLA-001 monomers served as standards, covering the range of 15-500 ng/ml. Peptide-MHC monomers of the UV-exchange reaction were diluted 100 fold in blocking buffer. Samples were incubated for 1 h at 37° C., washed four times, incubated with 2 ug/ml HRP conjugated anti-β2m for 1 h at 37° C., washed again and detected with TMB solution that is stopped with […]. Absorption was measured at 450 nm. Candidate peptides that show a high exchange yield (preferably higher than 50%, most preferred higher than 75%) are generally preferred for a generation and production of antibodies or fragments thereof, and/or T cell receptors or fragments thereof, as they show sufficient avidity to the MHC molecules and prevent dissociation of the MHC complexes.

Assay [4] addresses T2, HLA-A*02:01. Kind of assay: UV ligand-exchange ELISA (anti-b2m); ++++ = exchange yield >=75%.
Text: as §1, §2

Consider “263 (SIIEYLPTL; listed as Homo sapiens) [compound 263]”, for which, in assay [1], the “Wells positive [%]” value is listed as “+ (<20% = +)”. Further, the Peptide exchange entry in assay [2] is given as “+++ (≧50 = +++)”.

For the molecule “264 (TLHDQVHLL; listed as Homo sapiens) [compound 264]”, the “Wells positive [%]” value in assay [1] is recorded as “+ (<20% = +)”. Besides, in assay [2], the Peptide exchange result was “++ (≧20% = ++)”.

As for “267 (YLLDMPLWYL; listed as Homo sapiens) [compound 267]”, the “Wells positive [%]” value in assay [1] is reported as “+ (<20% = +)”. Besides, the Peptide exchange entry in assay [2] is listed as “+++ (≧50 = +++)”.

Turning to “275 (AVPPPPSSV; listed as Homo sapiens) [compound 275]”, the “Wells positive [%]” value in assay [1] is listed as “++ (20%-49% = ++)”. Further, in assay [2], the Peptide exchange entry is listed as “++ (≧20% = ++)”.

B1: AQHLSTLLL (peptide)
peptide: AQHLSTLLL
Consider B1, for which the peptide exchange yield in assay [3] fell in the range of 10 to 20%.

B2: GLDAFRIFL (peptide)
peptide: GLDAFRIFL
Take B2: in assay [4], the peptide exchange yield was no less than 75%.

B3: QTAPEEAFIKL (peptide)
peptide: QTAPEEAFIKL
In the case of B3, the peptide exchange yield in assay [3] was 10 to 20%.

B4: SEMEELPSV (peptide)
peptide: SEMEELPSV
For B4, the peptide exchange yield in assay [3] was in the range of 10 to 20%.

B5: RLFEEVLGV (peptide)
peptide: RLFEEVLGV
Take B5: the peptide exchange yield in assay [4] is no less than 75%.

B6: KLQEKIQEL (peptide)
peptide: KLQEKIQEL
On to B6, for which the peptide exchange yield in assay [4] is no less than 75%.

B7: VLLNEILEQV (peptide)
peptide: VLLNEILEQV
B7 came in with a peptide exchange yield in assay [4] of no less than 75%.

B8: SLVSWQLLL (peptide)
peptide: SLVSWQLLL
Molecule B8 gave a peptide exchange yield in assay [4] of no less than 75%.

B9: GLLDCPIFL (peptide)
peptide: GLLDCPIFL
For B9, the peptide exchange yield in assay [4] is no less than 75%.

B10: FLNAIETAL (peptide)
peptide: FLNAIETAL
With B10, the peptide exchange yield in assay [4] is no less than 75%.

B11: GPGIFPPPPPQP (peptide)
peptide: GPGIFPPPPPQP
B11: the peptide exchange yield in assay [3] fell in the range of 10 to 20%.

B12: NLLDENVCL (peptide)
peptide: NLLDENVCL
B12 registered a peptide exchange yield in assay [4] of no less than 75%.

B13: GLLPSAESIKL (peptide)
peptide: GLLPSAESIKL
On to B13, for which the peptide exchange yield in assay [4] was no less than 75%.

B14: FLLEREQLL (peptide)
peptide: FLLEREQLL
As for B14, the peptide exchange yield in assay [4] is no less than 75%.
